Paper PMC2909360 (Molecular microbiology, 2010)

T1: purified papain (UniProt P00784 134-345)
T1 sequence (looked up): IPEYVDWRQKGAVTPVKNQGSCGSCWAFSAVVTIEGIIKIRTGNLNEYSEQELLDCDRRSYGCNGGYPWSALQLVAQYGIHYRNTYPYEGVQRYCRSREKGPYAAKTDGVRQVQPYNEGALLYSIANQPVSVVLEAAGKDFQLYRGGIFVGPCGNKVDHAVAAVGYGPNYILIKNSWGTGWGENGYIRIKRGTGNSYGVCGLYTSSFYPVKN


Key:
Test in all cases: cell-based or functional assay
[1] = target: recombinant human cathepsin L (human, UniProt P07711 18-333)
[2] = target: recombinant human cathepsin S (human, UniProt P25774 17-331)
[3] = target: T1, purified papain
[4] = target: purified bovine cathepsin C (bovine)
Sequence of purified bovine cathepsin C (bovine) (Q3ZCJ8 25-463): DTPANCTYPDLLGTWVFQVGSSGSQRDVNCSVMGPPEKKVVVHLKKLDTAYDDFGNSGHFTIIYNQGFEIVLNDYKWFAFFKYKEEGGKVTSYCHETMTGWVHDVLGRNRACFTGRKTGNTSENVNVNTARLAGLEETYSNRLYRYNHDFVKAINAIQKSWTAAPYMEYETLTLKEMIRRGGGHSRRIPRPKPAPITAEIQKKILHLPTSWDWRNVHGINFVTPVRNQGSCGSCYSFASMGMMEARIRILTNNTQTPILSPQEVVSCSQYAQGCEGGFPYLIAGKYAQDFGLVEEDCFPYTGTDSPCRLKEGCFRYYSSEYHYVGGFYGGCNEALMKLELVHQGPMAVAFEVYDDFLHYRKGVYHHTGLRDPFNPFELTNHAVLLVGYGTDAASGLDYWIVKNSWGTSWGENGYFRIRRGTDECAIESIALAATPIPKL

Sequence of recombinant human cathepsin S (P25774 17-331): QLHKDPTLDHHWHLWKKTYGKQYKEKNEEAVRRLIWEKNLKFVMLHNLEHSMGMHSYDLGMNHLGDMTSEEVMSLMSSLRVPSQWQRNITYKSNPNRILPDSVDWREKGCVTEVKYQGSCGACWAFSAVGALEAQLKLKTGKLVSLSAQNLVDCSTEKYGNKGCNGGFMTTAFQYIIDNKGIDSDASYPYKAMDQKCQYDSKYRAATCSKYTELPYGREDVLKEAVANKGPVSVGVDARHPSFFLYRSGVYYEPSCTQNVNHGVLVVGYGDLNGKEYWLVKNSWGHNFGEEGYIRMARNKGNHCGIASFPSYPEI
Sequence of recombinant human cathepsin L (P07711 18-333): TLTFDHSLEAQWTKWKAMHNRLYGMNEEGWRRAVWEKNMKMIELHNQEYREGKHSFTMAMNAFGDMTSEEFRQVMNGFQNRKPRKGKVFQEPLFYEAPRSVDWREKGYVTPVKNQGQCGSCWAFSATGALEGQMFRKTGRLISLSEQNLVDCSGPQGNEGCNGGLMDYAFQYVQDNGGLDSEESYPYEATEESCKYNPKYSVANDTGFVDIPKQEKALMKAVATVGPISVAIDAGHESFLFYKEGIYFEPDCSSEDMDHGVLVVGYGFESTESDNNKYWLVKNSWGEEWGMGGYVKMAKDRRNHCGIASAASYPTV

Row | Binder | IC50 of inhibition of enzyme activity (fluorogenic substrate) [1] | IC50 of inhibition of enzyme activity (fluorogenic substrate) [2] | IC50 of inhibition of enzyme activity (fluorogenic substrate) [3] | IC50 of inhibition of enzyme activity (fluorogenic substrate) [4]
1 | sialostatin L2 (natural protein) MELALRGGYRERSNQDDPEYLELAHYATSTWSAQQPGKTHFDTVVEVLKVETQTVAGTNYRLTLKVAESTCELTSTYNKDTCQANANAAQRTCTTVIYRNLQGEKSISSFECAAA | 1.1 nM | 114 nM | 0.4 nM | 4720 nM
2 | sialostatin L (natural protein) TGVFGGYSERANHQANPEFLNLAHYATSTWSAQQPGKTHFDTVAEVVKVETQVVAGTNYRLTLKVAESTCELTSTYNKDTCLPKADAAHRTCTTVVFENLQGDKSVSPFECEAA | 1.6 nM | 0.2 nM | 0.5 nM | 160 nM
